Experiments:
[1] = target: T1, human VLA4-Fc (alpha4-Fc/beta1-Fc heterodimer) (human); test: ELISA, VLA4-Fc coated, 1 mM MnCl2; from EC50 values; ELISA, VLA4-Fc coated on plate, 1 mM MnCl2 (activated VLA4); fold relative to Q38L-2D-VCAM-1
T1 construct: Soluble heterodimer from CHO cells, Protein A purified; also called VLA-Fc
Protocol: The relative binding affinities of various 2D-VCAM-1 variants to immobilized VLA4-Fc (α4-β1-Fc) heterodimer, relative to a control protein (e.g., Q38L-2D-VCAM-1 or to human 2D-VCAM-1), were deter using a solid-phase ELISA assay. […] The dilution series was transferred into the ELISA plate which was incubated at room temperature for 2 h and subsequently washed with TBS-T. Bound 2D-VCAM protein was detected by incubation with 0.5 ug/ml of biotinylated anti-human VCAM antibody (R&D Systems, Catalog No. BAF809) in TBS-TMC for 1 h at room temperature followed by a TBS-MT (TBS plus 1 mM MnCl2 and 0.02% TWEEN-20) wash and subsequent incubation with 1:2000 dilution of streptavidin-HRP (BD Biosciences, Catalog No. 554066) in TBS-TMC for 30 min at room temperature. […] Fold-improvement in binding was calculated relative to a control protein (e.g., Q38L-2D-VCAM-1 or human 2D-VCAM-1) assayed on the same plate.

[2] = target: T1, human VLA4-Fc (alpha4-Fc/beta1-Fc …); test: SPR (BIACORE), VLA4-Fc captured by anti-human IgG, 1 mM MnCl2, 1:1 Langmuir; standard BIACORE assay, first preparation (Table 5A); activated VLA4 (Mn2+)
Protocol: All BIACORE analyses were performed on a BIACORE 2000 system or BIACORE 3000 system (GE Healthcare) at room temperature (RT, 25° C.), HBS-P buffer (10 mM Hepes (pH 7.4), 150 mM NaCl, 0.005% surfactant P20) supplemented with 1 mM MnCl₂ (HBS-P-Mn) was used as the flow buffer for all experiments except where indicated.
The kinetic 2D-VCAM-1 assay measures binding kinetics of a dimeric ligand (e.g., VLA-Fc fusion protein or LPAM-1-Fc fusion protein) coated to sensor chips and monomeric analyte (e.g., 2D-VCAM-1 variant polypeptides) in the mobile phase. Goat anti-human IgG antibody (Jackson ImmunoResearch, Catalog No. 105-005-098) was immobilized on CM-5 sensor chips (GE Healthcare, Catalog No. BR-1000-14) according to the manufacturer's protocol. Antibody was diluted to 30 μg/ml in immobilization buffer (10 mM sodium acetate, pH 5.0 (GE Healthcare, Catalog No. BR-1003-51)). […] Un-reacted sites were quenched with 35 μl of 1 M ethanolamine-HCl pH 8.5 (GE Healthcare, Catalog No. BR-1000-50). This procedure typically yielded 15,000 response units (RU) of coupled antibody. VLA4-Fc or LPAM-1-Fc, prepared as described in Examples 3 and 4, respectively, were bound to antibody-coated sensor chips by injection of 20 μl of ligand solution (20 μg/ml protein in HBS-P-Mn buffer at a flow rate of 10 μl/min). Ligand capture levels were typically 200-300 RU. […]

T1 sequence (chain, as listed by the source limits assumed, form in doubt, chain 1 of 2): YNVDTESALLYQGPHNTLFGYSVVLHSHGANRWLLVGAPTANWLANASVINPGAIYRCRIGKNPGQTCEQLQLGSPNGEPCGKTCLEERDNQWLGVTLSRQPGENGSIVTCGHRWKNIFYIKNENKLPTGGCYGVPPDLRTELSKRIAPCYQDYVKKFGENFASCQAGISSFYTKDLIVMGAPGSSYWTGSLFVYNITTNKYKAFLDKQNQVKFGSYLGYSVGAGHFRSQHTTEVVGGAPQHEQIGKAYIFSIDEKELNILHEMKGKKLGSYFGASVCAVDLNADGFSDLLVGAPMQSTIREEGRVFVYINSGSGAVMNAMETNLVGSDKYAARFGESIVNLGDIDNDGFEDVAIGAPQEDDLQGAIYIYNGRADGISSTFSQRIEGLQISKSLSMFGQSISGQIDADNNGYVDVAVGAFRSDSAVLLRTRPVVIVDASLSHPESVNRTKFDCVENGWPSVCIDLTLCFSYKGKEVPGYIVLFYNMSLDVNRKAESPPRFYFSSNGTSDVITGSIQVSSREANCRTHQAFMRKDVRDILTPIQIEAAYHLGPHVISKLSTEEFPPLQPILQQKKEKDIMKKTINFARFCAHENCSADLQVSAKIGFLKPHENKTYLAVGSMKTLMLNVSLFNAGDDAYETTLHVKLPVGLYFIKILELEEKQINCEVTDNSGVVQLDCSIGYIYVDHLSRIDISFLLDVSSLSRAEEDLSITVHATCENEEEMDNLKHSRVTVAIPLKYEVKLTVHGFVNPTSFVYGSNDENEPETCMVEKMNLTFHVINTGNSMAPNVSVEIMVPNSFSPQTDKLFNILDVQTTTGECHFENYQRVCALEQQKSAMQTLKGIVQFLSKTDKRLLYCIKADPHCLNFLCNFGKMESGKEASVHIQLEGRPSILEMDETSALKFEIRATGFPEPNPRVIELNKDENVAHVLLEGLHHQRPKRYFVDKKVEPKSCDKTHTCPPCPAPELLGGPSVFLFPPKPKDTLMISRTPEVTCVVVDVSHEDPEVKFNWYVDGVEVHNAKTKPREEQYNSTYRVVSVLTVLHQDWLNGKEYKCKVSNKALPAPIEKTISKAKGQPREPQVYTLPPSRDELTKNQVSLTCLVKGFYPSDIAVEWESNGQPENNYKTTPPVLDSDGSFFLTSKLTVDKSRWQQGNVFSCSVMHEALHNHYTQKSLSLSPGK
T1 sequence (chain, as listed by the source limits assumed, form in doubt, chain 2 of 2): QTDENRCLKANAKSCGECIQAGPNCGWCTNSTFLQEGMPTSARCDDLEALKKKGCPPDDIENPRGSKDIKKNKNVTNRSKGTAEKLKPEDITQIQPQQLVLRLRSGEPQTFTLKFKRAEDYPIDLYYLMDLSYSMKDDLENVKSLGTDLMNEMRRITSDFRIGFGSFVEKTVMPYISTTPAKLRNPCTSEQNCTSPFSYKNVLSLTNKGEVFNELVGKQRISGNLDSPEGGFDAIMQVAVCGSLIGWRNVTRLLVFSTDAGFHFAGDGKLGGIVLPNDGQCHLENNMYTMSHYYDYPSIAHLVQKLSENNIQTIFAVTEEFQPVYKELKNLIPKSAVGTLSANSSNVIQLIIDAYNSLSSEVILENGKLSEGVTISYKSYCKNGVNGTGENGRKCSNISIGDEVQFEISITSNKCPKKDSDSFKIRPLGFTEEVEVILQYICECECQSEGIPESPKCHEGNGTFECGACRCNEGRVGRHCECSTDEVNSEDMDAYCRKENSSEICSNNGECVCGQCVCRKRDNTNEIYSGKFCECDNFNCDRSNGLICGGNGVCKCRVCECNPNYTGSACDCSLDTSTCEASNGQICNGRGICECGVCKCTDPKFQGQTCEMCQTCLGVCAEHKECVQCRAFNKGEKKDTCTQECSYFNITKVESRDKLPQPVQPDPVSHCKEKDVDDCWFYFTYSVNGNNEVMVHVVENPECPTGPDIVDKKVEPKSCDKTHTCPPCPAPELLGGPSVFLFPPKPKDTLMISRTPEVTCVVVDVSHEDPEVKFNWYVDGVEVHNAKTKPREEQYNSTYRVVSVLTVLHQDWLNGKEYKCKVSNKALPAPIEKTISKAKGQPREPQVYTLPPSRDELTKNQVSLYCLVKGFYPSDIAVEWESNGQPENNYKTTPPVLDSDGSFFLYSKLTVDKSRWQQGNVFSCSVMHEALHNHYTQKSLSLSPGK

B1: 2D-VCAM-1 variant Clone 146 (ligand, not shown: small tags and cut ends)
chain: FKIETTPESRYLAQIGDSVSLTCSTTGCESPLFFWRPLLDSPLNGKVTNEGTTSTLTMNPVSFGNEHSYLCTARCESRSLEKGIQVEIYSFPKDPEIHLSGPLEAGKPITVKCSVADVYPFDRLEIDLLKGDHLMKSQEFLEDADRKSLETKSLEVTFTPVIEDIGKVLVCRAKLHIDEMDSVPTVRQAVKELQVYISP
fold-improvement in binding relative to Q38L-2D-VCAM-1 [1]: 37 fold
Kd [2]: 0.0497 nM

From patent US20120135912A1 (PERSEID THERAPEUTICS, published 2012)
